Reference: publication PMC10275640
One block for each substance: values may come before it.

Key:
[1] = molecular target: Uso1 CCD-His6x (coiled-coil domain, residues 660–1103) (Aspergillus nidulans); test: AUC + other: dynamic light scattering; sedimentation velocity (20 °C, 48,000 rpm, PBS with 5% glycerol and 1 mM β-mercaptoethanol) and DLS at 20 °C; molecular mass from the Svedberg equation, compared with the predicted monomer
[2] = molecular target: Bos1-GST (Bos1 cytoplasmic domain, residues 1–219) (Aspergillus nidulans); test: pull-down; 75 µg SNARE-GST on glutathione Sepharose; His6 preys at 0.2 µM, overnight at 4 °C in 25 mM HEPES-KOH pH 7.5, 150 mM NaCl, 10% glycerol, 0.1% Triton X-100, 0.1 mM DTT; anti-His blot
[3] = molecular target: Bet1-GST (Bet1 cytoplasmic domain, residues 1–144); test: GST pull-down with purified proteins, anti-His western blot quantitation; details: n = 3, read off a plot
[4] = molecular target: Bos1-GST (Bos1 cytoplasmic domain, residues 1–219); test: as above; details: n = 3; parent: est. 0.7; read off a plot
[5] = molecular target: Bos1-GST (Bos1 cytoplasmic domain, residues 1–219); test: GST pull-down with purified proteins, anti-His6x western blot quantitation; details: 4 data points; parent: est. 0.5; read off a plot
[6] = molecular target: Uso1(E6K/G540S)-His6x (full length) (Aspergillus nidulans); test: AUC + other: dynamic light scattering; sedimentation velocity (20 °C, 48,000 rpm, PBS with 5% glycerol and 1 mM β-mercaptoethanol) and DLS at 20 °C; molecular mass from the Svedberg equation, compared with the predicted monomer
[7] = molecular target: Uso1(E6K/G540S)ΔCTR-His6x (residues 1–1040) (Aspergillus nidulans); test: as above
[8] = molecular target: Uso1-HA3 (native full-length Uso1 in Aspergillus extract) (Aspergillus nidulans); test: SEC; Aspergillus cell extract on Superose 6 10/300 in 25 mM Tris-HCl pH 7.5, 600 mM KCl, 4 mM EDTA, 1 mM DTT; fractions blotted with α-HA
[9] = molecular target: Uso1-His6x (full-length Uso1, residues 1–1103) (Aspergillus nidulans); test: SEC; bacterially expressed, purified His-tagged reference proteins run on the same Superose column; fractions blotted with α-His
[10] = molecular target: Bet1-GST (Bet1 cytoplasmic domain, residues 1–144) (Aspergillus nidulans); test: pull-down; 75 µg SNARE-GST on glutathione Sepharose; His6 preys at 0.2 µM, overnight at 4 °C in 25 mM HEPES-KOH pH 7.5, 150 mM NaCl, 10% glycerol, 0.1% Triton X-100, 0.1 mM DTT; anti-His blot
[11] = molecular target: Uso1-His6x (full-length Uso1, residues 1–1103) (Aspergillus nidulans); test: AUC + other: dynamic light scattering; sedimentation velocity (20 °C, 48,000 rpm, PBS with 5% glycerol and 1 mM β-mercaptoethanol) and DLS at 20 °C; molecular mass from the Svedberg equation, compared with the predicted monomer
[12] = molecular target: Uso1ΔCTR-His6x (residues 1–1040) (Aspergillus nidulans); test: as above

- stoichiometry N [1]: 2
Substance: Uso1 CCD-His6x (coiled-coil domain, residues 660–1103) (domain or fragment)

Substance: Uso1 GHD E6K (single mutant), His-tagged (domain or fragment)
- fold less efficient than G540S GHD [2]: 3 fold

Substance: Uso1 GHD-His6x (globular head domain, residues 1–659) E6K; G540S
- response ([3]; parent: est. 30): 38 % bound prey
- response [4]: 21 % bound prey
- response (% of input prey bound) [5]: 35

Substance: Uso1 GHD-His6x (globular head domain, residues 1–659) G540S
- response (% of input prey bound) [5]: 35

Substance: Uso1(E6K/G540S)-His6x (full length) (natural protein)
- fold change in protein retained against wild-type Uso1 [2]: 5 fold
- stoichiometry N [6]: 2

Substance: Uso1(E6K/G540S)ΔCTR-His6x (residues 1–1040) (domain or fragment)
- stoichiometry N [7]: 2

- stoichiometry N [8]: 2
Substance: Uso1-HA3 (native full-length Uso1 in Aspergillus extract) (natural protein)

- stoichiometry N [9]: 2
- percent of the prey pulled down [10]: 70%
- stoichiometry N [11]: 2
Substance: Uso1-His6x (full-length Uso1, residues 1–1103) (natural protein)

Substance: Uso1-His6x (full-length Uso1, residues 1–1103) E6K; G540S
- response ([3]; parent: est. 68): 60 % bound prey

Substance: Uso1ΔCTR-His6x (residues 1–1040) (domain or fragment)
- stoichiometry N [12]: 2
